From patent US20100196385A1 (AstraZeneca / MedImmune, published 2010)
Substitutions are numbered along the chain they refer to. Numbers in names are those of the source.

B1: 17F3 (antibody, IgG2, V domains shown)
VH: QVQLVQSGAEVKKPGASVKVSCKASGYTFTNYGISWVRQAPGQGLEWMGWINAYNGNTNYAQNLQGRVTMTTDTSTNTAYMELRSLRSDDTAVYYCARVAPAAFFDYWDQGTLVTVSS
VL: SYELTQPPSVSVSPGQTASITCSGDKLGDKYVCWYQQKPGQSPVLVIYQDNKRPSGIPERFSGSNSGNTATLIISGTQAMDEADYYCQAWDSSTVFGGGTKLTVL
notes: Fully human; also used where no isotype is printed
B2: 21F7 (antibody, IgG2, V domains shown)
VH: B1 VH with K23Q, P101A
VL: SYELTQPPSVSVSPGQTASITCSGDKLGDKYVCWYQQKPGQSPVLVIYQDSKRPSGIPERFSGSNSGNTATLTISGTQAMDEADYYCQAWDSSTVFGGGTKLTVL
notes: as for B1
B3: 9G8 IgG2 VH wt/VL wt (antibody, V domains shown)
VH: QLQLQESGPGLVKPSETLSLSCTVSGGSISSSSSYWGLIRQPPGKGLEWIGSIYYSGSTYYSPSLKSRVSISVDTSKNQFSLKLSSVTAADTAVYFCARQGYGGHPDVFDIWGQGTMVTVSS
VL: SSELTQSPSVSVSPGQTARITCSGDKLGDVYVCWYQQKTGQSPVLVIYEDTKRPSGIPERFSGSNSGNTATLTISGTQVMDEADYYCQAWDSTTAVIFGGGTKLTVL
notes: IgG2, transiently expressed
B4: 9G8 IgG2 VH L38W/VL C33S (antibody, V domains shown)
VH: B3 VH with L38W
VL: B3 VL with C33S
notes: IgG2
B5: 12A1 (antibody, IgG4, V domains shown)
VH: QVQLVQSGAEVKRPGASVKVSCKASGYTFTSYGITWVRQAPGQGLEYMGWISTYNGNTDYAQKFQGRVTMTADISTSTAYMELRSLRSDDTAVYYCARERGSYFDYWGQGTLVTVSS
VL: SYELTQPPSVSVSPGQTARITCSGDTLPKKYAYWYQQKSGQAPVLVIYEDIKRPSGIPERFSGSSSGTMATLTISGAQVEDEADYYCFSTDSGGNHKFGGGTKLTVL
notes: as for B1

Columns and labels:
full length human DLL4 [1] = biological target: T1, full length human DLL4 (human, UniProt Q9NR61 27-685); experiment: FMAT competition, purified antibody vs Alexa-647 human Notch1/Fc, 293T cells with human DLL4
T1 construct: whole, on cells; also called native DLL4 expressed in HEK293 cells
T1 sequence (Q9NR61 27-685): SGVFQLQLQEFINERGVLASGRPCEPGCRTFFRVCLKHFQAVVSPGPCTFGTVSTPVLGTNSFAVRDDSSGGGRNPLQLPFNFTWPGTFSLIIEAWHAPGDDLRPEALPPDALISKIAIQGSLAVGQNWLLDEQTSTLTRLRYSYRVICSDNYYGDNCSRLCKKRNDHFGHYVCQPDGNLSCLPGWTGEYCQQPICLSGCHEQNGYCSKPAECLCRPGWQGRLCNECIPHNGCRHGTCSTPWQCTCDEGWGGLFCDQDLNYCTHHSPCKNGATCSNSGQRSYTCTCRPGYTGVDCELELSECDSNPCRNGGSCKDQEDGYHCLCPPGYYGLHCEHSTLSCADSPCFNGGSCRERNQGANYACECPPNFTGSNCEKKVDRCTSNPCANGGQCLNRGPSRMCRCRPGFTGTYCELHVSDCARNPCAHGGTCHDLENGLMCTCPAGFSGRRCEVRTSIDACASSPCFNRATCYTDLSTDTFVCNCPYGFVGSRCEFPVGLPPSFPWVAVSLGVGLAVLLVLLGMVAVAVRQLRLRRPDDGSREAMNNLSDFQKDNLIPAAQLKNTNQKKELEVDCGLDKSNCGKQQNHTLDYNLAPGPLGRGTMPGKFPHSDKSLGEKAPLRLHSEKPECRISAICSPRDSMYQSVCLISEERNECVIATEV
Description: To discriminate between the purified antibodies based upon their ability to prevent the interaction between full-length recombinant DLL4 and soluble Notch1/Fc, the following assays were performed. Transfected and untransfected 239T cells were reconstituted in PBS containing 2% FCS and 5000 transfected and 17500 non-transfected cells were plated in 30 μl into wells of a 384-well tissue culture plate (Corning Costar, catalog #3712). Subsequently, 30 μl of purified antibodies, serial diluted from 5 μg/ml hybridoma supernatant was added and plates were incubated at 4° C. for 1 h, at which time 20 μl of 100 ng/ml Alexa-647 labeled human Notch1/Fc was added. After a further 3 h incubation at 4° C., the amount of bound Notch1/Fc was determined by reading the fluorescence in each well using an FMAT 8200 instrument (Applied Biosystems).

human Dll1 [2] = biological target: T2, human Dll1 (human, UniProt O00548 18-723); experiment: FACS, 15 µg/ml, 293T cells with human Dll1
T2 construct: whole, on cells
T2 sequence (looked up): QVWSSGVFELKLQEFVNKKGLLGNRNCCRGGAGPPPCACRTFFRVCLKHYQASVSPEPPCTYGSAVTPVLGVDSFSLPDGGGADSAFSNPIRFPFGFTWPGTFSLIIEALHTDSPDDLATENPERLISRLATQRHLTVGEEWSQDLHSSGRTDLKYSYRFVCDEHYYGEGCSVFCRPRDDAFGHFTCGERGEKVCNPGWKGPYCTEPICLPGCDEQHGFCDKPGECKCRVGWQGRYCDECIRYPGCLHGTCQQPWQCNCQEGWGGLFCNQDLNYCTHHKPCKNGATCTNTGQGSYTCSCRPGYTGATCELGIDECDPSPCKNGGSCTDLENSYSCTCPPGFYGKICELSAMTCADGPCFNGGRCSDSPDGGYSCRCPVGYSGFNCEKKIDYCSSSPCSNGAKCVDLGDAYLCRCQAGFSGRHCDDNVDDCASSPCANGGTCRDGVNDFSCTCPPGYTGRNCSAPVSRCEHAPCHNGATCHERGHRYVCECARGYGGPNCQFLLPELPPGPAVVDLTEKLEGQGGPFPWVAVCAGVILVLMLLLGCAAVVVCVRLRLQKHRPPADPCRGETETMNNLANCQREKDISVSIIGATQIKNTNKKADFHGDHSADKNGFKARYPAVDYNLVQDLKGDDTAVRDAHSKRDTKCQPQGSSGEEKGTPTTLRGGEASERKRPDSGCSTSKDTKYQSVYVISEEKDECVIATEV
Description: (§1) The ability of the purified antibodies to bind to human Jagged1 and Dll1 was determined by FACS analysis. […] Cells were resuspended in PBS containing 2% FCS and seeded at 50000 cells/well into V-bottomed plates. Anti-DLL4 antibodies diluted in PBS containing 2% FCS were added at a final concentration of 5 or 15 μg/ml and plates were incubated for 1 h at 4° C. […] Data was analyzed by comparing the shift in geometric mean fluorescence in the mock-transfected cells to that observed in the Jagged1- or Dll1-transfected cells and is shown in Tables 16 and 17.

human Dll1 [3] = biological target: T2, human Dll1; experiment: FACS, 15 µg/ml, 293T cells with human Dll1 vs mock
Description: as §1

full length human DLL4 [4] = biological target: T1, full length human DLL4; experiment: FMAT, hybridoma supernatant, 293T cells with human DLL4
Description: (§2) Cells diluted in PBS containing 2% FBS were seeded at a density of 3000 expressing and 15000 mock transfected cells per well in 384 well plates (Corning Costar, catalog #3712). Immediately after plating, 15 or 20 μl/well of hybridoma supernatants and 10 μl/well of secondary antibody (Goat anti-human IgG Fc Cy5, final concentration 750 ng/ml) were added and plates incubated for 3 h at room temperature prior to reading the fluorescence on the FMAT 8200 instrument (Applied Biosystems). The binding of human Notch1/Fc chimera (R&D systems, catalog #3647-TK), diluted 1:2 from 2.86 μg/ml was used as a positive control for DLL4 and human Notch3/Fc chimera diluted from 10 μg/ml was used a positive control for binding to Jagged1. Results for 12 hybridoma supernatants showing binding of hybridoma supernatants to human/cynomolgus monkey DLL4 and human Jagged are shown in Table 3.

[5] = biological target: DLL4 extracellular domain (R&D systems, catalog #1506-D4/CF) (UniProt Q9NR61 27-529, limits assumed); experiment: cell-based or functional assay
DLL4 extracellular domain (R&D systems, catalog #1506-D4/CF), sequence (Q9NR61 27-529 limits assumed): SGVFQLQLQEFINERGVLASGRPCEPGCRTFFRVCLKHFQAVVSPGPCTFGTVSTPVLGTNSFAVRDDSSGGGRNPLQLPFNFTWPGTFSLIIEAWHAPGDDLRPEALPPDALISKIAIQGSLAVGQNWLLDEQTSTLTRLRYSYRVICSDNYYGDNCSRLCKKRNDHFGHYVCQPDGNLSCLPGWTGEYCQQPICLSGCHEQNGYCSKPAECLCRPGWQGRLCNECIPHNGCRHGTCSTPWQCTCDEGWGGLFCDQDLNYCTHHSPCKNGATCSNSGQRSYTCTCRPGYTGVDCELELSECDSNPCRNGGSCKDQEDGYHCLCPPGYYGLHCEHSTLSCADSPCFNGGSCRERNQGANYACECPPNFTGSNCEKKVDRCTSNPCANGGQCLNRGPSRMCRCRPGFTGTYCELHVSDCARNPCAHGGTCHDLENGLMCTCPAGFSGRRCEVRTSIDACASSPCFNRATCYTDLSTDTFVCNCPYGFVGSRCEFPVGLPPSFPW

human Jagged1 [6] = biological target: T3, human Jagged1 (human, UniProt P78504 34-1218); experiment: FMAT, hybridoma supernatant, 293T cells with human Jagged1
T3 construct: whole, on cells
T3 sequence (P78504 34-1218): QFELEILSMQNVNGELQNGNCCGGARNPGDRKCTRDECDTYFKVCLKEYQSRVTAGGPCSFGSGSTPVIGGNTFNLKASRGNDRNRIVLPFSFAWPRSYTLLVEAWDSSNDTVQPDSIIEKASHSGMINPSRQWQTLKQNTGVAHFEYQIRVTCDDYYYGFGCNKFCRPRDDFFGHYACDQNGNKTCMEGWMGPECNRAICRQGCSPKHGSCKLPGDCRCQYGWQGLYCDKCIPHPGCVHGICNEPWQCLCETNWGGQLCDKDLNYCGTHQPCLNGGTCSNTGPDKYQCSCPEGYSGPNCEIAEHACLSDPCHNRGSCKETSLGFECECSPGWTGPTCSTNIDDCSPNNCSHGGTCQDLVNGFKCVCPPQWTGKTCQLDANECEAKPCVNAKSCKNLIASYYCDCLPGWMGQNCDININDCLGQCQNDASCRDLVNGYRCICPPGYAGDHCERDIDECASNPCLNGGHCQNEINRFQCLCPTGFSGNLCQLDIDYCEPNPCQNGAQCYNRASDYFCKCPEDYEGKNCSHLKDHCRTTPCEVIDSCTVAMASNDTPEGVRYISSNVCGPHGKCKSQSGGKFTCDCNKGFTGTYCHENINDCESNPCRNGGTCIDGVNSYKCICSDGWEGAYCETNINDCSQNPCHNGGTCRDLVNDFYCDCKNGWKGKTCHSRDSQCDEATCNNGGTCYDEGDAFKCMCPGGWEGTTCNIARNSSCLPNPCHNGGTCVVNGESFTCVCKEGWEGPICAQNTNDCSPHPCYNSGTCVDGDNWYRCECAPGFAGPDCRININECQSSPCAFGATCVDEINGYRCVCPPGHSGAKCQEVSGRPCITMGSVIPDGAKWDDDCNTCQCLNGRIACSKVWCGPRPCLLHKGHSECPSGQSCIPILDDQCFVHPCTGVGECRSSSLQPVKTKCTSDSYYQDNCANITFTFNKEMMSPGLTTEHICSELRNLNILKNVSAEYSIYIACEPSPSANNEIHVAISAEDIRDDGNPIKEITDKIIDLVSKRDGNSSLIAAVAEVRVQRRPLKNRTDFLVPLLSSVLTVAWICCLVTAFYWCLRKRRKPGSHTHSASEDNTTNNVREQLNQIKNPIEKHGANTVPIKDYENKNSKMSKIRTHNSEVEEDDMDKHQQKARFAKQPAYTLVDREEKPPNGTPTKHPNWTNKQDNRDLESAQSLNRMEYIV
Description: as §2

human Jagged1 [7] = biological target: T3, human Jagged1; experiment: FACS, 5 µg/ml, 293T cells with human Jagged1
Description: as §1

full length human DLL4 [8] = biological target: T1, full length human DLL4; experiment: FMAT competition, supernatant vs Alexa-647 human Notch1/Fc, 293T cells with human DLL4
Description: Transfected and untransfected 239T cells were reconstituted in PBS containing 2% FCS and 5000 transfected and 17500 non-transfected cells were plated in 20 μl into wells of a 384-well tissue culture plate (Corning Costar, catalog #3712). Subsequently, 20 μl of hybridoma supernatant was added and plates were incubated at 4° C. for 1 h, at which time 20 μl of Alexa-647 labeled human Notch1/Fc was added at a final concentration of 6.7 ng/ml. After a further 3 h incubation at 4° C., the amount of bound Notch1/Fc was determined by reading the fluorescence in each well using an FMAT 8200 instrument (Applied Biosystems). Results are expressed as % inhibitions with the minimum inhibition in the assay being determined by the effects of non-DLL4 binding supernatants prepared in a similar way as described in example 2, and the maximum inhibition being defined as the signal obtained in the presence of a saturating concentration of unlabeled Notch1/Fc. N.T.=not tested

human Jagged1 [9] = biological target: T3, human Jagged1; experiment: FACS, 5 µg/ml, 293T cells with human Jagged1 vs mock
Description: as §1

full length human DLL4 [10] = biological target: T1, full length human DLL4; experiment: FACS binding, HEK293 cells with human DLL4
Description: (§3) The activity of the mutated antibodies was assessed in two ways: firstly, the ability of the antibodies to block the binding of soluble Notch1/Fc to full length human DLL4 stably expressed in HEK293 cells as described in Example 3 was determined and, secondly, the binding of the antibodies to the same cell line used in the receptor-ligand competition studies was determined. For the binding studies, HEK293 cells stably overexpressing human DLL4 were resuspended in PBS containing 2% FCS at a concentration of 50,000 cells/well and incubated with titrations of antibody (final concentrations 0.01-10 μg/ml) for 1 h at 4° C. The cells were then washed and incubated with 0.31 μg/ml anti-human IgG-Fc-FITC (BD Pharmingen, cat#555786) for 30 minutes at 4° C. Bound […] was detected using FACS analysis. Results of these studies are summarized in Table 23, which show the effects of specific mutations to sequences of 9G8 and 2H10 on the ability of the antibodies to compete with Notch1 for binding to human DLL4 or to bind to human DLL4 relative to unmutated antibodies.

full length human DLL4 [11] = biological target: T1, full length human DLL4; experiment: FACS competition vs Notch1/Fc, HEK293 cells with human DLL4
Description: Further experiments were performed on selected antibodies using HEK293 cells that were stably transfected with either human, mouse or cynomolgus monkey DLL4 using retroviral constructs. In these experiments, anti-DLL4 antibodies (final concentration: 10-0.01 μg/ml) diluted in PBS containing 2% FCS were added to DLL4-expressing HEK 293 cells (50000 cells/well diluted in PBS containing 2% FCS) and incubated for 1 h at 4° C. Subsequently, Alexa-647 labeled human, rat or APC labeled mouse Notch1/Fc (e.g. R&D Systems, catalog #3647-TK-050, 1057-TK-050, 5267-TK-050, respectively) was added at a final concentration of 0.01-0.5 μg/ml and plates were incubated for a further 2 h at 4° C. prior to washing and reading on a FACSCalibur instrument.
as §3

Binder | % inhibition at 0.020 nM (full length human DLL4 [1]) [%] | % inhibition at 0.070 nM (full length human DLL4 [1]) [%] | % inhibition at 0.21 nM (full length human DLL4 [1]) [%] | % inhibition at 0.62 nM (full length human DLL4 [1]) [%] | % inhibition at 1.9 nM (full length human DLL4 [1]) [%] | % inhibition at 5.6 nM (full length human DLL4 [1]) [%] | % inhibition at 16.7 nM (full length human DLL4 [1]) [%] | IC50 (full length human DLL4 [1]) [nM] | Dll1/293T X Geo mean (human Dll1 [2]) | Dll1/mock ratio (human Dll1 [3]) | Count (full length human DLL4 [4]) | FL1 (full length human DLL4 [4]) | FL1 x count (full length human DLL4 [4]) | % inhibition 1 µg/ml, N = 1 (HUVEC proliferation on coated DLL4) [5] [%] | % inhibition 10 µg/ml, N = 1 (HUVEC proliferation on coated DLL4) [5] [%] | Count (human Jagged1 [6]) | FL1 (human Jagged1 [6]) | FL1 x count (human Jagged1 [6]) | Jagged1/293T X Geo mean (human Jagged1 [7]) | % inhibition n = 2 (full length human DLL4 [8]) [%] | further results
B1 | 14 | 25 | 14 | 29 | 69 | 121 | 115 | 1.81 | 47 | 1.14 | 219 | 11300 | 2.47e+06 | 24 | 48 | 30 | 1440 | 43100 | 16.3 | 108 | % inhibition 1 µg/ml, AVERAGE (HUVEC proliferation on coated DLL4) [5]: 30%; % inhibition 1 µg/ml, N = 2 (HUVEC proliferation on coated DLL4) [5]: 35%; % inhibition 10 µg/ml, AVERAGE (HUVEC proliferation on coated DLL4) [5]: 52%; % inhibition 10 µg/ml, N = 2 (HUVEC proliferation on coated DLL4) [5]: 56%; % inhibition n = 3 (full length human DLL4 [8]): 131%; Mean % inhibition (full length human DLL4 [8]): 120%; Jagged1/mock ratio (human Jagged1 [9]): 1.08
B2 | 11 | 17 | 7 | -22 | 35 | 116 | 104 | 1.95 | 30.2 | 1.13 | 200 | 10400 | 2.08e+06 | 30 | 48 | 1 | 2070 | 2070 | 13.8 | 93 | % inhibition n = 3 (full length human DLL4 [8]): 140%; Mean % inhibition (full length human DLL4 [8]): 117%; Jagged1/mock ratio (human Jagged1 [9]): 1.01
B3 | – | – | – | – | – | – | – | – | – | – | – | – | – | – | – | – | – | – | – | – | EC50 (full length human DLL4 [10]): 0.071 µg/mL; IC50 (full length human DLL4 [11]): 0.17 µg/mL
B4 | – | – | – | – | – | – | – | – | – | – | – | – | – | – | – | – | – | – | – | – | EC50 (full length human DLL4 [10]): 0.051 µg/mL; IC50 (full length human DLL4 [11]): 0.107 µg/mL
B5 | 6 | -18 | 9 | 15 | 88 | 119 | 101 | 1.48 | 47 | 1.12 | 179 | 9520 | 1.76e+06 | 50 | 62 | 25 | 988 | 24700 | 14.4 | 147 | % inhibition 1 µg/ml, AVERAGE (HUVEC proliferation on coated DLL4) [5]: 56%; % inhibition 1 µg/ml, N = 2 (HUVEC proliferation on coated DLL4) [5]: 62%; % inhibition 10 µg/ml, AVERAGE (HUVEC proliferation on coated DLL4) [5]: 74%; % inhibition 10 µg/ml, N = 2 (HUVEC proliferation on coated DLL4) [5]: 85%; % inhibition n = 1 (full length human DLL4 [8]): 103%; % inhibition n = 3 (full length human DLL4 [8]): 144%; Mean % inhibition (full length human DLL4 [8]): 131%; Jagged1/mock ratio (human Jagged1 [9]): 1.11
